The target of assay [1] is recombinant soluble human CD4 (human) (UniProt P01730). In words: BIAcore; rCD4 coupled to chip, mAb flowed. A general note: SPR reads the build-up and loss of mass on a sensor chip optically.
The target is the same in assay [2]. The assay is described as follows: SPR sensor chip; sCD4 amine-coupled, mAb flowed.

This is an account of results in patent US20100287629A1.

Usually koff stands for the first-order rate constant of dissociation. Broadly, the kon is a measure of how fast the partners come together. In the case of “Leu3a, mouse anti-human CD4 monoclonal antibody”, in assay [1], the Ka was 3.7e+10 M⁻¹, the koff amounted to 4.2e-06 s⁻¹ and the kon amounted to 150000 M⁻¹ s⁻¹. In addition, in assay [2], the Ka was 3.7e+10 M⁻¹, the koff worked out at 4.2e-06 s⁻¹ and the kon was 150000 M⁻¹ s⁻¹.
